For three substances, optical density (OD) and Optical Density 490 nm results are on record in patent US20170023592A1.

Test [1] has as its target human proBNP(1-108), recombinant, produced in E. coli (non-glycosylated) (human) (UniProt P16860). The test can be described thus: sandwich ELISA, hinge 76 capture, peroxidase-mAb detection; proBNP(1-108) 78 pg/ml.
Test [2] addresses human BNP(1-32) (human). The test can be described thus: sandwich ELISA, L21016 capture, mAb detection; BNP(1-32) 1,250 pg/ml. On the technique in general: An ELISA detects its analyte on a solid surface through an enzyme-linked reagent.
Test [3] has as its target human BNP(1-32) (human). Description: sandwich ELISA, L21016 capture, mAb detection; BNP(1-32) 625 pg/ml.
The target of test [4] is human proBNP(1-108), recombinant, produced in E. coli (non-glycosylated) (human) (UniProt P16860). Description: sandwich ELISA, hinge 76 capture, peroxidase-mAb detection; proBNP(1-108) 10,000 pg/ml.
Chain of human proBNP(1-108), recombinant, produced in E. coli (non-glycosylated) (human) (P16860 27-134): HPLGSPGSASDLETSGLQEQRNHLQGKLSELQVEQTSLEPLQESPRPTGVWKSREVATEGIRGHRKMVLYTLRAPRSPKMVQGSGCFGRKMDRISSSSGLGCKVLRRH
For test [5] the target is unchanged. Description: sandwich ELISA, hinge 76 capture, peroxidase-mAb detection; proBNP(1-108) 312.5 pg/ml.
Test [6] has the same target. Description: sandwich ELISA, hinge 76 capture, peroxidase-mAb detection; proBNP(1-108) 5,000 pg/ml.
In test [7] the target is human BNP(1-32) (human). Description: sandwich ELISA, L21016 capture, mAb detection; BNP(1-32) 2,500 pg/ml.
Chain of human BNP(1-32) (human) (peptide, as listed by the source): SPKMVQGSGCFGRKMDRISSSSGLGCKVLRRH
Test [8] concerns the target human BNP(1-32) (human). Description: sandwich ELISA, L21016 capture, mAb detection; BNP(1-32) 20 pg/ml.
For test [9], the target named is human proBNP(1-108), recombinant, produced in E. coli (non-glycosylated) (human) (UniProt P16860). Description: sandwich ELISA, hinge 76 capture, peroxidase-mAb detection; proBNP(1-108) 2,500 pg/ml.
For test [10] the target is unchanged. Description: sandwich ELISA, hinge 76 capture, peroxidase-mAb detection; proBNP(1-108) 625 pg/ml.
For test [11] the target is unchanged. Description: sandwich ELISA, hinge 76 capture, peroxidase-mAb detection; proBNP(1-108) 39 pg/ml.
Test [12] concerns the target human BNP(1-32) (human). Description: sandwich ELISA, L21016 capture, mAb detection; BNP(1-32) 10,000 pg/ml.
Test [13] addresses human BNP(1-32) (human). Description: sandwich ELISA, L21016 capture, mAb detection; BNP(1-32) 39 pg/ml.
Test [14] addresses human BNP(1-32) (human). The test can be described thus: sandwich ELISA, L21016 capture, mAb detection; BNP(1-32) 78 pg/ml.
The target in test [15] is human BNP(1-32) (human). The test can be described thus: sandwich ELISA, L21016 capture, mAb detection; BNP(1-32) 312.5 pg/ml.
For test [16], the target named is human proBNP(1-108), recombinant, produced in E. coli (non-glycosylated) (human) (UniProt P16860). Description: sandwich ELISA, hinge 76 capture, peroxidase-mAb detection; proBNP(1-108) 0 pg/ml (blank).
Test [17] shares this target. Description: sandwich ELISA, hinge 76 capture, peroxidase-mAb detection; proBNP(1-108) 1,250 pg/ml.
Test [18] concerns the target human BNP(1-32) (human). The test can be described thus: sandwich ELISA, L21016 capture, mAb detection; BNP(1-32) 5,000 pg/ml.
The target in test [19] is human BNP(1-32) (human). The test can be described thus: sandwich ELISA, L21016 capture, mAb detection; BNP(1-32) 156.25 pg/ml.
The target of test [20] is human proBNP(1-108), recombinant, produced in E. coli (non-glycosylated) (human) (UniProt P16860). Description: sandwich ELISA, hinge 76 capture, peroxidase-mAb detection; proBNP(1-108) 156.25 pg/ml.
Test [21] has as its target human BNP(1-32) (human). The test can be described thus: sandwich ELISA, L21016 capture, mAb detection; BNP(1-32) 0 pg/ml (blank).
Test [22] addresses human proBNP(1-108), recombinant, produced in E. coli (non-glycosylated) (human) (UniProt P16860). The test can be described thus: sandwich ELISA, hinge 76 capture, peroxidase-mAb detection; proBNP(1-108) 20 pg/ml.
Test [23] concerns the target human BNP(1-32) (human). Description: sandwich ELISA, L21016 capture, BNP(1-32) 5 ng/ml; detection by 50B7 0.5 ug/ml alone (no 20G7).

On to “24C5 monoclonal antibody (HyTest, Turku, Finland)”, for which the optical density (OD) in test [1] came to 0.056 OD; in test [4] it was 0.22 OD; in test [5] it was 0.035 OD; in [6] it was 0.117 OD; in test [9] it was 0.069 OD; in test [10], 0.07 OD. The optical density (OD) in [11] was 0.056 OD; in test [16], 0.044 OD; in test [17], 0.068 OD; in test [20], 0.055 OD; in test [22], 0.052 OD. For the same substance, the optical density (OD) at 490 nm was 0.056 OD in the test with human BNP(1-32) (human) [2]; 0.059 OD in the test with human BNP(1-32) (human) [3]; 0.067 OD in the test with human BNP(1-32) (human) [7]; 0.068 OD with human BNP(1-32) (human) [8]; 0.077 OD with human BNP(1-32) (human) [12]; 0.055 OD with human BNP(1-32) (human) [13]. Further, the optical density (OD) at 490 nm with human BNP(1-32) (human) [14] amounted to 0.052 OD; with human BNP(1-32) (human) [15] it was 0.063 OD; with human BNP(1-32) (human) [18] it was 0.068 OD; with human BNP(1-32) (human) [19], 0.071 OD; in the test with human BNP(1-32) (human) [21], 0.071 OD.

With “26E2 monoclonal antibody (HyTest, Turku, Finland)”, the optical density (OD) came to 0.033 OD in test [1]; 0.158 OD in [4]; 0.028 OD in test [5]; 0.041 OD in test [6]; 0.031 OD in test [9]; 0.024 OD in test [10]. Also, the optical density (OD) in test [11] was found to be 0.028 OD; in [16], 0.024 OD; in test [17], 0.024 OD; in test [20], 0.027 OD; in [22] it was 0.028 OD. Further, the optical density (OD) at 490 nm with human BNP(1-32) (human) [2] turned out to be 0.031 OD; with human BNP(1-32) (human) [3], 0.029 OD; with human BNP(1-32) (human) [7], 0.035 OD; with human BNP(1-32) (human) [8] it was 0.034 OD; with human BNP(1-32) (human) [12], 0.048 OD; with human BNP(1-32) (human) [13], 0.032 OD. For the same substance, the optical density (OD) at 490 nm turned out to be 0.055 OD with human BNP(1-32) (human) [14]; 0.027 OD with human BNP(1-32) (human) [15]; 0.041 OD with human BNP(1-32) (human) [18]; 0.032 OD in the test with human BNP(1-32) (human) [19]; 0.022 OD with human BNP(1-32) (human) [21].

On to “50B7 monoclonal antibody (HyTest, Finland)”, for which the Optical Density 490 nm in the test with human BNP(1-32) (human) [23] was 1.3 OD.
